# Experimental data from the DeepSol protein solubility set.
# Assay: soluble on expression in E. coli; label from the status in PepcDB or PDB records
row,Sequence,soluble on expression in E. coli
1,MGSDKIHHHHHHMAEQENSKDLISVLWSGADVLRSKMDANEYKNYLLGIVFYKYLSDSFLIRVYDLINDEKPESLKVALEAYKNELKGEYANDLLDELKQDRKYVIEPELTYTCFAEDARNNCFNREQLQKAFNNIEQSGELFVDLFSDIDLYSSRLGAGDQKQSDTIAELIKVIDQADLLNSDGEILGDAYEYLIGQFASETGKKAGEFYTPQAVSKILTRIAITGQENVKGLSIYDPCMGSGSLLLNAKRYYKGDTNYIKYYGQELNMSTYNLARMNMFLHDVAAENQNLHHGDTLDADWPTGEETDFHMVLMNPPYSAKWSAASGFLQDERFSEYGVLAPKSKADYAFLLHGLYHLKSNGTMAIVLPHGVLFRGAAEGKIREKLLRSGNIYAVIGLPANLFYNTSIPTCIVVLKKHRDGRDVLFIDASKKFIKGKKQNEMSDEHIDEVMDLYNRRETVDKESYLASFDDIEKNDFNLNIPRYVDNFEKEEEVDINGLLEDMQKTDDEIGKVEGEFVNLLKDLTSSDENIMASLNRYIDMIEG,not soluble
2,MSSRPPFGIVKPSKPTGNPSSGSSELDSTAQPPQERGTDLQRASSGSDVHGHPSPGSQSHNLTSAQSGGRNAHKDLHERHVHPSQGYQRHGSKAPAHGHPSSQGARRSQLKLSNFPKLLANLMQDTKATQDFNSKYHSDFKKSKNSLITGESIFKFSHGIINFFFGRTSASCASNQDTLQPTASTMSDGEPEEDKVKLCGNRLEVGVTDNLAGTQRRKEQQQLQGAQAKKQQAPQRVVNRKANHQKLSRKRRYAPYKDDVIGAHGFFNNMR,not soluble
3,MGSDKIHHHHHHMFLEKLVEMARGKGKKLAVAAANDDHVIEAVYRAWRERVCEPVLFGPEEEITRIIEELVPEWKNPQIIDCPPEEAGRLAVEAVSKGECDFLMKGKIKTGDLMKIYLDERYGLRTGKTMAMVSVMEIPDFPRPLIISDPGMLISPTLEQKVDMIEHCVRVANVMGLETPKVAVVGAIEVVNPKMPITMEAAILSKMNQRGQIKGCIVDGPFALDNVVSEEAAKKKGIQSPVAGKADILILPDIEAANILYKALVFLAKAKSASTILGGKVPVVLTSRADSEETKFYSIALSAVFA,not soluble
4,MADPWQECMDYAVTLAGQAGEVVREALKNEMNIMVKSSPADLVTATDQKVEKMLITSIKEKYPSHSFIGEESVAAGEKSILTDNPTWIIDPIDGTTNFVHGFPFVAVSIGFVVNKKMEFGIVYSCLEDKMYTGRKGKGAFCNGQKLQVSHQEDITKSLLVTELGSSRTPETVRIILSNIERLLCLPIHGIRGVGTAALNMCLVAAGAADAYYEMGIHCWDVAGAGIIVTEAGGVLLDVTGGPFDLMSRRVIASSNKTLAERIAKEIQIIPLQRDDED,soluble
5,MSLRSTKTIHVISCHAEGEVGDVIVGGVAPPPGETLWEQRSFIARDQTLRNFVLNEPRGGVFRHVNLLVPPRHPEADAAFIIMEPEDTPPMSGSNSICVSTVLLDGGIVPMIEPITEMVLEAPGGLVRVKAECRNGKAERIFVQNVTSFADKLSVPLDVEGIGTLTVDTAYGGDSFVVVDAEALGFAIVEDEAKDIARLGVRITNAANEQLGFSHPENPDWNHISFCAFCGPLSQTPTGLTGRSAVAIQPGKVDRSPTGTAVSARMALMAARGQMTIGDTFEAVSIIGSSFTGRIVSQQMAGDRPGIVPEISGRGWITGIHQHMLDPSDPWPGGYKLSDTWGAEGHHHHHH,soluble
6,METEIKRTSTKDIIAYLTEKFPECFSIKGPVKPLKIGIFQDLAEKLDDDETVSKTRLRQALRHYTSSWRYLKVIKVGNSRVDVDGKDVAEIDEDQAAYASKTLKESQEKFGNKKATDNDAKKPYKGKQGSTEAANNKPADKKRESTKFKTVKSTPKKTVKKEVEPLKSVESTTINVGSKVRVQLGNSPMKATITEISGKDISVQLDSGMVIKTQLQNIYL,not soluble
7,RYNGLTLRSVFQPIFDKQHQVVGAEALVRIFTQHHTQIRPDLFFHSETFADDDKLNVERLSRAIHIRNFSLSPYRDTRLFLNVLPVAGEQFAYCDISSTLLATRLAELNIPHHRVVMELVEIESGDEGMLQMATEKLVANGFQIAIDDFGCKASTPERVAMLRPNIIKLDRQLLLDFMAGDCCGLLAGVQLAQKTGAHTVVEGIETAEQLAAMQKLDINMYQGYYLALPEGIAQTAKVANAN,not soluble
8,MSNTESTPVFDVCLSEKSFPHAQDKAILVHVFLSQTKDIDNLTEFQTLAESAGVELLSTLTTSRNAPHIKYFVGQGKAEEIAQAVENLGATVVLINHQLSPAQTRNLQNLCGCRIVDRSGLILDIFAQRARSHEGKLQVELAQLRHLSTRLVRRLGNQDQQKGGSVGLRGPGETQLETDRRLIKVRIQQLQNQLDKVNKKRHQNRKTRQKADIPTVSLVGYTNAGKSTLFNAITQAGVYAADQLFATLDPTLRRMQIQDVGTTILADTVGFIRFLPHDLVSAFKSTLQETTEANLLLHVVDIADERKNDNITAVNQVLDEIGALTLPSLLIYNKVDKITDITPHIERNQEGKPIAVYLSAHTNQGIDLLYQAIRECLRNELVCQKILLPTTAGQIYAQIRNQNCIKQEHFNQFGDRLIDIEVNAVQWQKWLKQYPALIEYVAFAKWENELEHHHHHH,not soluble
9,MAHHHHHHMSASLKKTALHLFHLAQQAKMDAFAGYHMPISYGRLGVLKEHLYTREVAGIFDVSHVGQYEVRGADRERFLEHVTPVDLQRIRAGHGALTMLTNAQGGIKDDCIVTKMADHLFLVLNAGCKEKDVAHMESVLRESAMKGADVQLVPLDRSLIALQGPQAAAILSEFMDDVPGMGFMQCRQRVNIKGMEVQVTRCGYTGEDGFELSVSNTDIVALVELLMSRKAEMIGLGARDSLRLEAGLNLYGHELTEDINPVAARFMWVISKRRMAEGGFIGYEPIKYLRDNASKGAVPRLRVGLVSTGPVAREKTVIEVGGKPVGEVTSGCPSPCLKKNIAIGYLDRELAKDGVKVDLVVRGRRVAAVVVTPPFVPARYYRKPK,not soluble
10,MSLKNLTIKENQPAIYITNLGKYTEGEHMGQWLNVPATKEQFNVVLKNIGVDGVQYEEYFLTDWENIGGISQFSNIERVNNMAKIQIAINEKLYNFFGADQEITYFNDDKYKVMEILNDYAKEQADELTTDEIIENIESMRIFAQDQYNSCIVNFANYLIDELEFINFKAIEKIDQKVVNYFDFEKFGHDKLIELNANSDVIIGTYEVGKLNDTIIIVTLFEGHHHHHH,soluble
11,MAENDGETIVPDEQCNLTASTPMKSSGLEQVESPKERKTSMVECDDEGNPSSGTPDESPKQLTPHSIPPRRRRSPRRPEVSASRLPLKVLNQIFQYLPLKDLRSAMLTCHSWNNALSMEDSDIWQYLLGKKLPEAAVSDPFLLAELGSAKKKLRAWYFAWNTSDISRNNYIRTNGFTVHRQPVAQSTDGVRGKRGISKGVHAFDITWDGPLGTVAVVGIATKHAALHCVGYVALLGSDDQSWGWNLVDNVLMHNGAQLGVYPKMNNPPKYEVGDKIRLIIDCDTHVAYFERNSEFLGIAFNHIPPLRLYPAVCAVYGNTEVTMVYVGSPQMG,not soluble
12,MGSDKIHHHHHHMNQNLSSYWIFYTVANAGNISKAAKELYISQPAISKSIQKLEDGLECKLFSRSSRGVVLTDEGRLLYDHVSEAFEALNEGEEKLKRSIELGVGQLKIGVSSTLCKYMLLPYLKEFIHRNPHISISIECQSTNETLKLLDDDKIDIGLIGKPASLKTFNFYYLDNIEDIFVTTKDYLRNLSARGVKKSEILQNSTLMLLDKGNMTRKYIDDYLQENQIHVKDSIDISNMDLLIDFAKIGVGVACVIKSIVSKELADGTLIEIPLGIPIHKREVGFAYKESSKLSTSLQTFIKFYESYTPEDF,not soluble
13,MSLRPTMADVAREAGVSLSTVDRVLNLRADVRTDTAQRIAAAAALLGFHAKGVIEQRILNDKPTVRLGFLLQKSGVAFYKGLAQALSNAAATFTRARVQVVIGYLDDLDPATVAQRLLALGDQVDGVGMVAVDHPRVRDAVASLQVAGVPVVALISELAGLGSASYVGVDNRLMGRTAGWFVTRLAGSPGSAAVMVSSQRFQCQELCEMSFRSYLSSHSTDWELLASRLTLEDDDFAYGNALDLLSGEPELSALYVAGGGVAGVLRALRELQQQQIRLPVVVCHDLTPLTREALKADLVQVVLSHPIVQVAEQTVRALVAASSDLTRVARVTVPIQVDVSESIAEGHHHHHH,soluble
14,QLNPYLRLKVRRDHIIDDALVRLEMIAMENPADLKKQLYVEFEGEQGVDEGGVSKEFFQLVVEEIFNPDIGMFTYDESTKLFWFNPSSFETEGQFTLIGIVLGLAIYNNCILDVHFPMVVYRKLMGKKGTFRDLGDSHPVLYQSLKDLLEYEGNVEDDMMITFQISQTDLFGNPMMYDLKENGDKIPITNENRKEFVNLYSDYILNKSVEKQFKAFRRGFHMVTNESPLKYLFRPEEIELLICGSRNLDFQALEETTEYDGGYTRDSVLIREFWEIVHSFTDEQKRLFLQFTTGTDRAPVGGLGKLKMIIAKNGPDTERLPTSHTCFNVLLLPEYSSKEKLKERLLKAITYAKGFGML,soluble
15,GSHMGGGGGIVLFVDFDYFYAQVEEVLNPSLKGKPVVVCVFSGRFEDSGAVATANYEARKFGVKAGIPIVEAKKILPNAVYLPMRKEVYQQVSSRIMNLLREYSEKIEIASIDEAYLDISDKVRDYREAYNLGLEIKNKILEKEKITVTVGISKNKVFAKIAADMAKPNGIKVIDDEEVKRLIRELDIADVPGIGNITAEKLKKLGINKLVDTLSIEFDKLKGMIGEAKAKYLISLARDEYNEPIRTRVRKSIGRIVTMKRNSRNLEEIKPYLFRAIEESYYKLDKRIPKAIHVVAVTEDLDIVSRGRTFPHGISKETAYSESVKLLQKILEEDERKIRRIGVRFSKFIEAIGLDKFFDT,soluble
16,MGLEKVVLTGLGAGLIAVAARGQNPLATALKIEQNDEGETVVRDAVTIGKPAEQLYAVWRDLPGLPLLMTHLRSVEVLDDKRSRWTVEAPAPLGTVSWEAELTADEPGKRIAWRSLPGARIENSGEVLFRPAPGARGTEVVVRLTYRPPGGSAGAVIARMFNQEPSQQLRDDLMRFKREQELGLEHHHHHH,soluble
17,MQIYLSTLTELDYDKSLNSIEESFDDNPETSWQARAKVKHLRKSPCYNFELEVIAKNENNDVVGHVLLIEVEINSDDKTYYGLAIASLSVHPELRGQKLGRGLVQAVEERAKAQEYSTVVVDHCFDYFEKLGYQNAAEHDIKLEFGDAPLLVKYLWDNLTDAPHGIVKFPEHFY,not soluble
18,ASEEDLAAATEKMQSMKGKKSQAAAALEAEQAKAEKRLSCLLKARTKLSFRVIRDGIKCHGGIHLKKQSEKAELDISVTNTAINNLPSDADIVITHKDLTDRAKAKLPNATHISVDNFLNSPKYDELIEKLKSNLIEREYCHASTRKGNIKLNQTVSSKEEAIKLAGQTLIDNGYVTEDYISKMFDREETSSTFMGNFIAIPHGTEEAKSEVLHSGISIIQIPEGVEYGEGNTAKVVFGIAGKNNEHLDILSNIAIICSEEETLNA,not soluble
19,MRKWQCVVCGFIYDEALGLPEEGIPAGTRWEDIPADWVCPDCGVGKIDFEMIEIA,soluble
20,MKFDRHRRLRSSATMRDMVRENHVRKEDLIYPIFVVEKDDVKKEIKSLPGVYQISLNLLESELKEAYDLGIRAIMFFGVPNSKDDIGTGAYIHDGVIQQATRIAKKMYDDLLIVADTCLCEYTDHGHCGVIDDHTHDVDNDKSLPLLVKTAISQVEAGADIIAPSNMMDGFVAEIRRGLDEAGYYNIPIMSYGVKYASSFFGPFRDAADSAPSFGDRKTYQMDPANRLEALRELESDLKEGCDMMIVKPALSYLDIVRDVKNHTNVPVVAYNVSGEYSMTKAAAQNGWIDEERVVMEQMVSMKRAGADMIITYFAKDICRYLDK,not soluble
21,GSADAPRDRHRTIVVGGDRDYPPYEFIDQNGKPAGYNVELTRAIAEVMGMTVEFRLGAWSEMFSALKSGRVDVLQGISWSEKRARQIDFTPPHTIVYHAIFARRDSPPAAGLEDLRGRKVALHRDGIMHEYLAERGYGKDLVLTPTPADALRLLAAGGCDYAVVAMVPGMYIIRENRLTNLVPVARSIAAQRYGYAVRQGDAELLARFSEGLAILRKTGQYEAIRAKWLGVLEP,soluble
